For assay [1], the target named is human CD16a (158F), full length, on FlpinCHO cells (human, UniProt P08637 17-254). Briefly: FACS on FlpinCHO cells.
Assay [2] deals with T1, human CD16a (158V), full length, on cells (human, UniProt P08637 17-254).
T1 construct: also used as target for the bought Jurkat-NFAT reporter line stably expressing human CD16a (158V); also called FlpinCHO-human CD16a (158V); FlpinCHO-CD16a (158V)
Briefly: FACS on FlpinCHO cells.

The target of assay [3] is T2, human CD16b (NA1), full length, on FlpinCHO cells (human, UniProt O75015 17-200).
T2 construct: also called FlpinCHO-human CD16b (NA1)
T2 chain: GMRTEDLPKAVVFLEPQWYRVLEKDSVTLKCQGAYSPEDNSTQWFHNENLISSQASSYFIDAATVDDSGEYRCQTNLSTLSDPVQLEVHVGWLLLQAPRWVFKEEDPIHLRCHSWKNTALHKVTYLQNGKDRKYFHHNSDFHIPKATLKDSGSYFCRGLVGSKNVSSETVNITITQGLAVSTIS
Briefly: FACS on FlpinCHO cells. Put shortly:
(§1)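 EC50 values come from fitted MFI curves measured by FACS. Antibody dilutions were bound for 1 hour on ice to CD16b-transfected FlpinCHO cells suspended in PBS with 2% BSA blocking solution.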

The target of assay [4] is T3, human CD16b (NA2), full length, on FlpinCHO cells (human, UniProt O75015 17-200).
T3 construct: also called FlpinCHO-human CD16b (NA2)
T3 chain: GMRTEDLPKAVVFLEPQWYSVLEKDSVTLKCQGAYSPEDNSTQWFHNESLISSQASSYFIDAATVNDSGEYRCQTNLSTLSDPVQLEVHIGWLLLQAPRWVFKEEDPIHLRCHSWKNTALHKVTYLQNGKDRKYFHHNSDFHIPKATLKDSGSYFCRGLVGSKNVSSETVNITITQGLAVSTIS
The experiment in a line: FACS on FlpinCHO cells. Put shortly: as §1

In assay [5] the target is T1, human CD16a (158V), full length, on …. The experiment in a line: cell-based or functional assay.
The target of the next assay is T4, Human CD16a (158F)-his (human).
T4 construct: entry holds ECD, AVI tag, linker and His tag
The experiment in a line: SPR (Biacore), antibody captured on Protein A. Put shortly:
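Protein A–captured antibody was probed with CD16-his ECD in HBS-EP+ at 25 °C: five 2-fold dilutions from 200 nM, 240 s at 30 μL/min, dissociation up to 600 s. Glycine pH 1.5 regenerated the chip. Apparent KD came from a double-referenced 1:1 Langmuir fit.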
Background: In SPR one partner is held on a chip, and binding of the other changes the refractive index at the surface.

Assay [6] has as its target T5, CD16 on primary human NK cells (human, UniProt P08637 17-254).
T5 construct: whole, on cells; also called resting NK cells
The experiment in a line: FACS on human NK cells, biotinylated antibody.

Assay [7] deals with T5, CD16 on primary human NK cells. The experiment in a line: FACS on human NK cells, biotinylated antibody, +10 mg/mL human immunoglobulin.
The target of assay [8] is T6, cynomolgus monkey CD16, full length, on FlpinCHO cells (cynomolgus monkey, UniProt Q8SPW2 17-254).
T6 construct: also called FlpinCHO-cyno CD16; Flipin CHO-cyno CD16
The experiment in a line: FACS on FlpinCHO cells. The protocol:
The required cells were scale-up cultured in a T-75 cell culture flask to the logarithmic growth phase. The medium was aspirated, and the cells were washed twice with a PBS buffer and then digested with trypsin. After the digestion was terminated, the cells were washed twice with the PBS buffer. The cells were counted, and then the cell pellet was resuspended with a [PBS+2% (w/w) BSA] blocking solution to 2×10⁶ cells/ml, and added to a 96-well FACS reaction plate at 50 μl/well. […] 50 μl/well of the antibody to be detected was added at different concentrations, and incubated on ice for 1 hour. […] The mixture was centrifuged and washed 5 times with PBS, and FACS (FACS Canto II, purchased from BD Company) was used for detection and result analysis. Data analysis was performed by software (CellQuest) to obtain the mean fluorescence intensity (MFI) of the cells. Then, software (GraphPad Prism8) was used for analysis, data fitting and EC50 value calculation.
Flipin CHO-cyno CD16 cells were subjected to FACS detection and data analysis according to the method of Example 3.1.

T6 sequence (Q8SPW2 other isoform, or with tags, fused parts or gaps limits assumed): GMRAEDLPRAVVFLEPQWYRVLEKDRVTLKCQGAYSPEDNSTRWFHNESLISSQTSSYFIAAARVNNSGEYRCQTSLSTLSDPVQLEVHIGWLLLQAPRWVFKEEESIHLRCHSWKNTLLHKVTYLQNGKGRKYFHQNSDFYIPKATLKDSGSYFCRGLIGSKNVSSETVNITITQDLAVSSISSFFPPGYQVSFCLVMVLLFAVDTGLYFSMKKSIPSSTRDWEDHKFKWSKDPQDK

B1: VHH06-04 humanized VHH-Fc antibody (Fc fusion)
chain: EVQLVESGGGVVQPGGSLRLSCAASGSTWTTYAVRWYRQAPGKQREWVAFISVDGSTNYPDSVKGRFTISRDNSKNTVYLQMNSLRAEDTADYICRVGGQYWGQGTMVTVSSEPKSSDKTHTCPPCPAPEEFGGPSVFLFPPKPKDTLMISRTPEVTCVVVAVSHEDPEVKFNWYVDGVEVHNAKTKPREEQYNSTYRVVSVLTVLHQDWLNGKEYKCKVSNKALPAPIEKTISKAKGQPREPQVYTLPPSREEMTKNQVSLTCLVKGFYPSDIAVEWESNGQPENNYKTTPPVLDSDGSFFLYSKLTVDKSRWQQGNVFSCSVMHEALHNHYTQKSLSLSPGK
The EC50 is the concentration giving half of the maximal effect. By Kd is commonly meant the constant that tells how readily two partners part at equilibrium. One may read the koff as the rate constant with which the complex falls apart. What is called kon is a measure of how fast the partners come together. Regarding B1, the half-maximal effective concentration (EC50) in [1] was found to be 0.39 nM; in [2], 0.4 nM; in assay [3], 0.32 nM; in assay [6], 1.34 nM; in assay [7], 3.99 nM. The “Maximum mean fluorescence intensity” value in [1] turned out to be 9570; in [2], 8890; in assay [3], 53000; in assay [4] it was 437; in [6], 61800; in assay [7] it was 71400. Also, the binding result in assay [4] is “no binding (tested: 100 nM)”. In addition, the “EC50, activation activity for Jurkat cell” value (“EC50, activation activity” for short) in [5] was determined as 0.02 nM. The molecule further yielded a Maximum fluorescence value in assay [5] of 159000. For the same molecule, in the assay with Human CD16a (158F)-his, binding was put at a Kd of 9.8 nM. The molecule further yielded a koff with Human CD16a (158F)-his of 0.000467 s⁻¹. Moreover, in the assay with Human CD16a (158F)-his, the association rate constant (kon) was 47700 M⁻¹ s⁻¹.

B2: VHH06-05 humanized VHH-Fc antibody (Fc fusion)
chain: EVQLVESGGGVVQPGGSLRLSCAASGSTWTTYAVRWYRQAPGKQREWVAFISVDGSTNYADSVKGRFTISRDNAKNTVYLQMNSLRAEDTADYICRVGGQYWGQGTMVTVSSEPKSSDKTHTCPPCPAPEEFGGPSVFLFPPKPKDTLMISRTPEVTCVVVAVSHEDPEVKFNWYVDGVEVHNAKTKPREEQYNSTYRVVSVLTVLHQDWLNGKEYKCKVSNKALPAPIEKTISKAKGQPREPQVYTLPPSREEMTKNQVSLTCLVKGFYPSDIAVEWESNGQPENNYKTTPPVLDSDGSFFLYSKLTVDKSRWQQGNVFSCSVMHEALHNHYTQKSLSLSPGK
With B2, the EC50 in [1] is 0.27 nM; in assay [2] it was 0.23 nM; in assay [3] it was 0.18 nM; in [6] it was 1.33 nM; in assay [7], 3.66 nM. Moreover, the “Maximum mean fluorescence intensity” value in assay [1] was found to be 8890; in [2] it was 8840; in assay [3], 55200; in assay [4], 296; in assay [6], 53900; in [7] it was 64900. Also, the binding result in assay [4] was “no binding (tested: 100 nM)”. Also, the “EC50, activation activity” value in assay [5] worked out at 0.03 nM. In [5], the Maximum fluorescence value amounted to 176000. For the same molecule, in the assay with Human CD16a (158F)-his, the Kd is 26.9 nM. This molecule also displayed a koff in the assay with Human CD16a (158F)-his of 0.00109 s⁻¹. Further, the on-rate constant (kon) with Human CD16a (158F)-his worked out at 40300 M⁻¹ s⁻¹.

B3: VHH12-05 humanized VHH-Fc antibody (Fc fusion)
chain: EVQLVESGGGLVQPGGSLRLSCAASGITFSSYAMGWYRQAPGKQRELVAAINRFGLTNYVDSVKGRFTISRVNAKNSLYLQMNSLRAEDTAVYYCNTGGVYSHPDYYTGTYWGQGTMVTVSSEPKSSDKTHTCPPCPAPEEFGGPSVFLFPPKPKDTLMISRTPEVTCVVVAVSHEDPEVKFNWYVDGVEVHNAKTKPREEQYNSTYRVVSVLTVLHQDWLNGKEYKCKVSNKALPAPIEKTISKAKGQPREPQVYTLPPSREEMTKNQVSLTCLVKGFYPSDIAVEWESNGQPENNYKTTPPVLDSDGSFFLYSKLTVDKSRWQQGNVFSCSVMHEALHNHYTQKSLSLSPGK
With B3, the EC50 in assay [1] is 0.35 nM; in [2], 0.41 nM; in [3], 0.95 nM; in assay [8], 0.55 nM; in assay [6] it was 0.65 nM; in assay [7], 2.48 nM. For the same molecule, the “Maximum mean fluorescence intensity” value was 9340 in [1]; 8130 in assay [2]; 48200 in [3]; 74000 in assay [4]; 18300 in assay [8]; 70400 in assay [6]. In addition, in assay [7], the “Maximum mean fluorescence intensity” value was found to be 72100. Besides, the “EC50, activation activity” value in [5] was 0.01 nM. This molecule displayed a Maximum fluorescence value in assay [5] of 122000. Also, binding with Human CD16a (158F)-his was characterised by a dissociation constant (Kd) of 53.9 nM. The off-rate constant (koff) with Human CD16a (158F)-his was found to be 0.0208 s⁻¹. The same molecule displayed a kon with Human CD16a (158F)-his of 385000 M⁻¹ s⁻¹.

B4: VHH12-06 humanized VHH-Fc antibody (Fc fusion)
chain: EVQLVESGGGLVQPGGSLRLSCAASGITFSSYAMGWYRQAPGKQRELVAAINRFGLTNYVDSVKGRFTISRDNAKNSVYLQMNSLRAEDTAVYYCNTGGVYSHPDYYTGTYWGQGTMVTVSSEPKSSDKTHTCPPCPAPEEFGGPSVFLFPPKPKDTLMISRTPEVTCVVVAVSHEDPEVKFNWYVDGVEVHNAKTKPREEQYNSTYRVVSVLTVLHQDWLNGKEYKCKVSNKALPAPIEKTISKAKGQPREPQVYTLPPSREEMTKNQVSLTCLVKGFYPSDIAVEWESNGQPENNYKTTPPVLDSDGSFFLYSKLTVDKSRWQQGNVFSCSVMHEALHNHYTQKSLSLSPGK
With B4, the EC50 in assay [1] came out at 0.6 nM; in assay [2] it was 0.64 nM; in assay [3], 1.94 nM; in assay [8] it was 0.83 nM; in assay [6], 0.53 nM; in [7] it was 1.69 nM. In addition, the “Maximum mean fluorescence intensity” value was 8770 in assay [1]; 7550 in assay [2]; 40600 in [3]; 69800 in assay [4]; 18600 in [8]; 39300 in assay [6]. The “Maximum mean fluorescence intensity” value in [7] was determined as 38100. Further, in [5], the “EC50, activation activity” value amounted to 0.02 nM. Besides, the Maximum fluorescence value in [5] came out at 158000. The molecule also had a Kd with Human CD16a (158F)-his of 27.6 nM. The molecule further registered a koff with Human CD16a (158F)-his of 0.0164 s⁻¹. The same molecule came in with a kon with Human CD16a (158F)-his of 592000 M⁻¹ s⁻¹.
